In patent publication US20130345145A1, “ATIP3 AND BIOLOGICALLY ACTIVE FRAGMENTS THEREOF FOR USE IN THE TREATMENT OF CANCER” (INSTITUT NATIONAL DE LA SANTE ET DE LA RECHERCHE MEDICALE …, priority 2011, published 2013):

B1: ATIP3b: microtubule-associated tumor suppressor 1 isoform 2, SEQ ID NO: 6 (protein, listed as Homo sapiens)
chain: MTDDNSDDKIEDELQTFFTSDKDGNTHAYNPKSPPTQNSSASSVNWNSANPDDMVVDYETDPAVVTGENISLSLQGVEVFGHEKSSSDFISKQVLDMHKDSICQCPALVGTEKPKYLQHSCHSLEAVEGQSVEPSLPFVWKPNDNLNCAGYCDALELNQTFDMTVDKVNCTFISHHAIGKSQSFHTAGSLPPTGRRSGSTSSLSYSTWTSSHSDKTHARETTYDRESFENPQVTPSEAQDMTYTAFSDVVMQSEVFVSDIGNQCACSSGKVTSEYTDGSQQRLVGEKETQALTPVSDGMEVPNDSALQEFFCLSHDESNSEPHSQSSYRHKEMGQNLRETVSYCLIDDECPLMVPAFDKSEAQVLNPEHKVTETEDTQMVSKGKDLGTQNHTSELILSSPPGQKVGSSFGLTWDANDMVISTDKTMCMSTPVLEPTKVTFSVSPIEATEKCKKVEKGNRGLKNIPDSKEAPVNLCKPSLGKSTIKTNTPIGCKVRKTEIISYPRPNFKNVKAKVMSRAVLQPKDAALSKVTPRPQQTSASSPSSVNSRQQTVLSRTPRSDLNADKKAEILINKTHKQQFNKLITSQAVHVTTHSKNASHRVPRTTSAVKSNQEDVDKASSSNSACETGSVSALFQKIKGILPVKMESAECLEMTYVPNIDRISPEKKGEKENGTSMEKQELKQEIMNETFEYGSLFLGSASKTTTTSGRNISKPDSCGLRQIAAPKAKVGPPVSCLRRNSDNRNPSADRAVSPQRIRRVSSSAGNAAVIKYEEKPPKPAFQNGSSGSFYLKPLVSRAHVHLMKTPPKGPSRKNLFTALNAVEKSRQKNPRSLCIQPQTAPDALPPEKTLELTQYKTKCENQSGFILQLKQLLACGNTKFEALTVVIQHLLSEREEALKQHKTLSQELVNLRGELVTASTTCEKLEKARNELQTVYEAFVQQHQAEKTERENRLKEFYTREYEKLRDTYIEEAEKYKMQLQEQFDNLNAAHETSKLEIEASHSEKLELLKKAYEASLSEIKKGHEIEKKSLEDLLSEKQESLEKQINDLKSENDALNEKLKSEEQKRRAREKANLKNPQIMYLEQELESLKAVLEIKNEKLHQQDIKLMKMEKLVDNNTALVDKLKRFQQENEELKARMDKHMAISRQLSTEQAVLQESLEKESKVNKRLSMENEELLWKLHNGDLCSPKRSPTSSAIPLQSPRNSGSFPSPSISPR
modifications: (1)..(409) acidic N-terminal region
B2: D2C: domain of ATIP3BD, amino-acid positions 705-874 of SEQ ID NO: 1, expressed as GFP fusion (protein, listed as Homo sapiens)
chain: TTSGRNISKPDSCGLRQIAAPKAKVGPPVSCLRRNSDNRNPSADRAVSPQRIRRVSSSGKPTSLKTAQSSWVNLPRPLPKSKASLKSPALRRTGSTPSIASTHSELSTYSNNSGNAAVIKYEEKPPKPAFQNGSSGSFYLKPLVSRAHVHLMKTPPKGPSRKNLFTALNA
modifications: GFP fusion; (1)..(409) acidic N-terminal region
B3: D2N: domain of ATIP3BD, amino-acid positions 410-634 of SEQ ID NO: 1, expressed as GFP fusion (protein, listed as Homo sapiens)
chain: GLTWDANDMVISTDKTMCMSTPVLEPTKVTFSVSPIEATEKCKKVEKGNRGLKNIPDSKEAPVNLCKPSLGKSTIKTNTPIGCKVRKTEIISYPRPNFKNVKAKVMSRAVLQPKDAALSKVTPRPQQTSASSPSSVNSRQQTVLSRTPRSDLNADKKAEILINKTHKQQFNKLITSQAVHVTTHSKNASHRVPRTTSAVKSNQEDVDKASSSNSACETGSVSALF
modifications: GFP fusion; (1)..(409) acidic N-terminal region
B4: ATIP3a: microtubule-associated tumor suppressor 1 isoform 1, SEQ ID NO: 1 (protein, listed as Homo sapiens)
chain: MTDDNSDDKIEDELQTFFTSDKDGNTHAYNPKSPPTQNSSASSVNWNSANPDDMVVDYETDPAVVTGENISLSLQGVEVFGHEKSSSDFISKQVLDMHKDSICQCPALVGTEKPKYLQHSCHSLEAVEGQSVEPSLPFVWKPNDNLNCAGYCDALELNQTFDMTVDKVNCTFISHHAIGKSQSFHTAGSLPPTGRRSGSTSSLSYSTWTSSHSDKTHARETTYDRESFENPQVTPSEAQDMTYTAFSDVVMQSEVFVSDIGNQCACSSGKVTSEYTDGSQQRLVGEKETQALTPVSDGMEVPNDSALQEFFCLSHDESNSEPHSQSSYRHKEMGQNLRETVSYCLIDDECPLMVPAFDKSEAQVLNPEHKVTETEDTQMVSKGKDLGTQNHTSELILSSPPGQKVGSSFGLTWDANDMVISTDKTMCMSTPVLEPTKVTFSVSPIEATEKCKKVEKGNRGLKNIPDSKEAPVNLCKPSLGKSTIKTNTPIGCKVRKTEIISYPRPNFKNVKAKVMSRAVLQPKDAALSKVTPRPQQTSASSPSSVNSRQQTVLSRTPRSDLNADKKAEILINKTHKQQFNKLITSQAVHVTTHSKNASHRVPRTTSAVKSNQEDVDKASSSNSACETGSVSALFQKIKGILPVKMESAECLEMTYVPNIDRISPEKKGEKENGTSMEKQELKQEIMNETFEYGSLFLGSASKTTTTSGRNISKPDSCGLRQIAAPKAKVGPPVSCLRRNSDNRNPSADRAVSPQRIRRVSSSGKPTSLKTAQSSWVNLPRPLPKSKASLKSPALRRTGSTPSIASTHSELSTYSNNSGNAAVIKYEEKPPKPAFQNGSSGSFYLKPLVSRAHVHLMKTPPKGPSRKNLFTALNAVEKSRQKNPRSLCIQPQTAPDALPPEKTLELTQYKTKCENQSGFILQLKQLLACGNTKFEALTVVIQHLLSEREEALKQHKTLSQELVNLRGELVTASTTCEKLEKARNELQTVYEAFVQQHQAEKTERENRLKEFYTREYEKLRDTYIEEAEKYKMQLQEQFDNLNAAHETSKLEIEASHSEKLELLKKAYEASLSEIKKGHEIEKKSLEDLLSEKQESLEKQINDLKSENDALNEKLKSEEQKRRAREKANLKNPQIMYLEQELESLKAVLEIKNEKLHQQDIKLMKMEKLVDNNTALVDKLKRFQQENEELKARMDKHMAISRQLSTEQAVLQESLEKESKVNKRLSMENEELLWKLHNGDLCSPKRSPTSSAIPLQSPRNSGSFPSPSISPR
modifications: (1)..(409) acidic N-terminal region

What was measured:
[1] = tested on: human breast cancer MCF-7 cells; experiment: Clonogenicity experiments; assay type: cell-based; conditions: for cell proliferation / number of G418-resistant colonies: MCF-7 transfected with GFP fusion, G418 selection 3 weeks, compared to GFP; for inhibitory effect on colony number relative to that of GFP-ATIP3: MCF7, FIG. 12
Method: For clonogenicity experiments, human breast cancer MCF-7 cells were transfected for 24 h with […] pEGFP-C1 vector or 2 μg of pEGFP-ATIP3BD cDNA. Similar transfection efficiency (50%) was assessed by FACS analysis and cell viability was verified using trypan blue. Cells were then plated at various dilutions in 12 well plates and transfectants were selected by adding geneticin (G418, 1 mg/ml, Gibco) in fresh medium twice a week for 3 weeks. Resistant colonies were stained with 0.5% crystal violet (Sigma) and counted.
The ability of human MCF7 breast cancer cells to form colonies following expression of minimal domains D2N and D2C was analyzed by clonogenicity experiments as described before (see example 2).

microtubule cytoskeleton = experiment: Immunofluorescence intracellular localization in RPE1 cells; assay type: cell-based, Human; conditions: RPE1 cells transfected 24 hrs, data not shown
Method: Immunofluorescence study was performed as example 2. Briefly, Human retinal pigment epithelial (RPE1) cells were transfected for 24 hrs with GFP-D2N, GFP-D2C or GFP-D2CC constructs prior to fixation in ice-cold methanol and incubation with anti-GFP antibodies as described (page 21, lines 1-9).

| Molecule | cell proliferation / number of G418-resistant colonies [1] | intracellular localization (microtubule cytoskeleton) | inhibitory effect on colony number relative to that of GFP-ATIP3 [1] [%] |
| --- | --- | --- | --- |
| B1 | inhibit cell proliferation and reduce cancer cell growth | – | – |
| B2 | strongly reduces the number of G418-resistant colonies | associate with the microtubule cytoskeleton | 78 |
| B3 | strongly reduces the number of G418-resistant colonies | associate with the microtubule cytoskeleton | 71 |
| B4 | inhibit cell proliferation and reduce cancer cell growth | – | – |
